Assay results from patent publication US20160272683A1 (Novo Nordisk, published 2016).
Numbered stars: 1 amine (or outer) side, 2 acyl side, 3 side chain; on linkers, the order of the positions; unused ones are H or OH. Square brackets hold non-standard residues; d marks the D form. Side chains are listed from the residue outwards. * marks the point of attachment. C20 diacid = O=C(O)CCCCCCCCCCCCCCCCCCC(=O)*; γGlu = O=C(O)[C@H](CCC(=O)[*:2])N[*:1]

T1: human amylin receptor (amylin 3(a) receptor: human calcitonin receptor with RAMP-3) (human, UniProt P30988 25-474; O60896 24-148, limits assumed)
T1 construct: whole, on cells; Assay V: membranes of the Amylin 3(a)/CRE-luc BHK cells on SPA beads; also called hAmylin-R
T1 sequence (looked up) 1: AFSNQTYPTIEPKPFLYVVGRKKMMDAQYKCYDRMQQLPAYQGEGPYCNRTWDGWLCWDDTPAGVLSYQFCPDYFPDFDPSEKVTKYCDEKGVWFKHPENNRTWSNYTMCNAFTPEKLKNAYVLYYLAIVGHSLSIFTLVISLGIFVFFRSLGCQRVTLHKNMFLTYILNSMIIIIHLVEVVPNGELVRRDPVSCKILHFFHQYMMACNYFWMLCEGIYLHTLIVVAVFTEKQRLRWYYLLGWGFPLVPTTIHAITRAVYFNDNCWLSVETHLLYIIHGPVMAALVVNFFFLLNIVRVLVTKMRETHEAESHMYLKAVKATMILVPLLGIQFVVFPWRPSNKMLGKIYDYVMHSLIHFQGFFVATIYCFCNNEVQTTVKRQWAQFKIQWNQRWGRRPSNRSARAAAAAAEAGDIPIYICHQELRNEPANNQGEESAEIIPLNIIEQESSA
T1 sequence (looked up) 2: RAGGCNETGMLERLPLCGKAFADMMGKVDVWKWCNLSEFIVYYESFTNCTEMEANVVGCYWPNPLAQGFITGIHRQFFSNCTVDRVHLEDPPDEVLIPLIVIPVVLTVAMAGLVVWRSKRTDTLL

T2: human calcitonin receptor (human, UniProt P30988 25-474)
T2 construct: whole, on cells; Assay VII: membranes on SPA beads; also called hCT-R; hCTR
T2 sequence (looked up): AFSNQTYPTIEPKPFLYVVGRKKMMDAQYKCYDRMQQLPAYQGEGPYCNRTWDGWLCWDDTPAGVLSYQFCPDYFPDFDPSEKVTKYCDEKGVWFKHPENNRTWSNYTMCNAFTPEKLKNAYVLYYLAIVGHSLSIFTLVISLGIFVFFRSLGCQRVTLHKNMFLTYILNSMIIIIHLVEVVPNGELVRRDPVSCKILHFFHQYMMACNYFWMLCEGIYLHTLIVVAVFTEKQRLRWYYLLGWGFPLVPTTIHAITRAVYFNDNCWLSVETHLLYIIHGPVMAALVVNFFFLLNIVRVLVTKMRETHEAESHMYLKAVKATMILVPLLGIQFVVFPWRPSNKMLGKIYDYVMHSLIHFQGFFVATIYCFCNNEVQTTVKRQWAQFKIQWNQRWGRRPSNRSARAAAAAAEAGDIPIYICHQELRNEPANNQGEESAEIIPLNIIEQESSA


Experiments:
[1] = target: T1, human amylin receptor (amylin 3(a) …); assay: SPA competition vs 125I-rat amylin, membranes with human CTR + RAMP-3 (Assay V)
Description: The binding assay was performed using scintillation proximity assay (SPA) beads (RPNQ0001) from PerkinElmer and cell membranes from the Amylin 3(a)/CRE-luc cells (as described in Assay (II)) were used. Membranes were prepared in the following way; the cells were rinsed with PBS and incubated with Versene for approximately 5 min before harvesting. The cells were flushed with PBS and the cell-suspension was centrifuged for 5 min at 1000 rpm. […] The resulting pellet was resuspended in buffer 2 and protein concentration was tested (BCA protein Assay, Pierce). The homogenate was kept cold during the whole procedure. The membranes were kept at −80° C. until use. The assay was performed in a 384 well Optiplate (PerkinElmer) in a total volume of 40 ul. Membranes were mixed with SPA beads. Final concentration of membranes 35 ng/μL final and SPA beads was 0.05 mg/well. Test-compounds were dissolved in DMSO and further diluted in assay buffer (50 mM Hepes, pH 7.4, 1 mM CaCl2, 5 mM MgCl2, 0.1% OA and 0.02% Tween20). […] Samples were analyzed on TopCounter™ (Packard). The IC₅₀ was calculated using (one site binding competition analysis) GraphPad Prism5 as a measure of receptor affinity.

[2] = target: T2, human calcitonin receptor; assay: SPA competition vs 125I-calcitonin, membranes with human CTR (Assay VII)
Description: The binding assay was performed using scintillation proximity assay (SPA) beads (RPNQ0001) from PerkinElmer® and cell membranes prepared from a BHK tk'ts 13 cell line was stably transfected with the human calcitonin receptor and a CRE-responsive luciferase reporter gene. Membranes were prepared in the following way; the cells were rinsed with PBS and incubated with Versene for approximately 5 min before harvesting. The cells were flushed with PBS and the cell-suspension was centrifuged for 5 min at 1000 rpm.
EDTA (pH 7.4, buffer 2). The resulting pellet was resuspended in buffer 2 and protein concentration was tested (BCA protein Assay, Pierce). The homogenate was kept cold during the whole procedure. The membranes were kept at −80° C. until use. Assay was performed in a 384 well Optiplate (PerkinElmer®) in a total volume of 40 ul. Membranes were mixed with SPA beads. Final concentration of membranes 35 ng/μL final and Final concentration of SPA beads was 0.05 mg/well. Test-compounds were dissolved in DMSO and further diluted in assay buffer (50 mM Hepes, pH 7.4, 1 mM CaCl2, 5 mM MgCl2, 0.1% OA and 0.02% Tween20). […] Samples were analyzed on TopCounter™ (Packard). The IC₅₀ was calculated using (one site binding competition analysis) GraphPad Prism5 as a measure of receptor affinity.

Row | IC50 [1] [pM] | IC50 [2] [pM] | Binder
1 | 29 | 22 | {C20 diacid-γGlu}-ASELSTAALGRLS[dE]ELHELATLPRTETGSGSP-NH2 (SMILES CC(C)C[C@H](NC(=O)[C@H](C)NC(=O)[C@H](C)NC(=O)[C@@H](NC(=O)[C@H](CO)NC(=O)[C@H](CC(C)C)NC(=O)[C@H](CCC(=O)O)NC(=O)[C@H](CO)NC(=O)[C@H](C)NC(=O)CC[C@H](NC(=O)CCCCCCCCCCCCCCCCCCC(=O)O)C(=O)O)[C@@H](C)O)C(=O)NCC(=O)N[C@@H](CCCNC(=N)N)C(=O)N[C@@H](CC(C)C)C(=O)N[C@@H](CO)C(=O)N[C@H](CCC(=O)O)C(=O)N[C@@H](CCC(=O)O)C(=O)N[C@@H](CC(C)C)C(=O)N[C@@H](Cc1c[nH]cn1)C(=O)N[C@@H](CCC(=O)O)C(=O)N[C@@H](CC(C)C)C(=O)N[C@@H](C)C(=O)N[C@H](C(=O)N[C@@H](CC(C)C)C(=O)N1CCC[C@H]1C(=O)N[C@@H](CCCNC(=N)N)C(=O)N[C@H](C(=O)N[C@@H](CCC(=O)O)C(=O)N[C@H](C(=O)NCC(=O)N[C@@H](CO)C(=O)NCC(=O)N[C@@H](CO)C(=O)N1CCC[C@H]1C(N)=O)[C@@H](C)O)[C@@H](C)O)[C@@H](C)O, mimylin derivative; des1 = residue 1 deleted; lower case e = D-form of Glu; also called Ex. #67; 67) [[N-terminal(C20 diacid-gGlu), des1, 15e, 30S, 31G]mimylin]
2 | 141 | 102 | {C20 diacid-γGlu}-ASELSTAALGRLSAELHELATYPRTETGSGAP-NH2 (SMILES CC(C)C[C@H](NC(=O)[C@H](C)NC(=O)[C@H](C)NC(=O)[C@@H](NC(=O)[C@H](CO)NC(=O)[C@H](CC(C)C)NC(=O)[C@H](CCC(=O)O)NC(=O)[C@H](CO)NC(=O)[C@H](C)NC(=O)CC[C@H](NC(=O)CCCCCCCCCCCCCCCCCCC(=O)O)C(=O)O)[C@@H](C)O)C(=O)NCC(=O)N[C@@H](CCCNC(=N)N)C(=O)N[C@@H](CC(C)C)C(=O)N[C@@H](CO)C(=O)N[C@@H](C)C(=O)N[C@@H](CCC(=O)O)C(=O)N[C@@H](CC(C)C)C(=O)N[C@@H](Cc1c[nH]cn1)C(=O)N[C@@H](CCC(=O)O)C(=O)N[C@@H](CC(C)C)C(=O)N[C@@H](C)C(=O)N[C@H](C(=O)N[C@@H](Cc1ccc(O)cc1)C(=O)N1CCC[C@H]1C(=O)N[C@@H](CCCNC(=N)N)C(=O)N[C@H](C(=O)N[C@@H](CCC(=O)O)C(=O)N[C@H](C(=O)NCC(=O)N[C@@H](CO)C(=O)NCC(=O)N[C@@H](C)C(=O)N1CCC[C@H]1C(N)=O)[C@@H](C)O)[C@@H](C)O)[C@@H](C)O, mimylin derivative; des1 = residue 1 deleted; also called Ex. #81; 81) [[N-terminal(C20 diacid-gGlu), des1, 23Y, 30S, 31G, 32A]mimylin]
3 | 394 | 70 | {C20 diacid-γGlu}-ASELSTAALGRLSAELHELATYPRTETGSGSP-NH2 (SMILES CC(C)C[C@H](NC(=O)[C@H](C)NC(=O)[C@H](C)NC(=O)[C@@H](NC(=O)[C@H](CO)NC(=O)[C@H](CC(C)C)NC(=O)[C@H](CCC(=O)O)NC(=O)[C@H](CO)NC(=O)[C@H](C)NC(=O)CC[C@H](NC(=O)CCCCCCCCCCCCCCCCCCC(=O)O)C(=O)O)[C@@H](C)O)C(=O)NCC(=O)N[C@@H](CCCNC(=N)N)C(=O)N[C@@H](CC(C)C)C(=O)N[C@@H](CO)C(=O)N[C@@H](C)C(=O)N[C@@H](CCC(=O)O)C(=O)N[C@@H](CC(C)C)C(=O)N[C@@H](Cc1c[nH]cn1)C(=O)N[C@@H](CCC(=O)O)C(=O)N[C@@H](CC(C)C)C(=O)N[C@@H](C)C(=O)N[C@H](C(=O)N[C@@H](Cc1ccc(O)cc1)C(=O)N1CCC[C@H]1C(=O)N[C@@H](CCCNC(=N)N)C(=O)N[C@H](C(=O)N[C@@H](CCC(=O)O)C(=O)N[C@H](C(=O)NCC(=O)N[C@@H](CO)C(=O)NCC(=O)N[C@@H](CO)C(=O)N1CCC[C@H]1C(N)=O)[C@@H](C)O)[C@@H](C)O)[C@@H](C)O, mimylin derivative; des1 = residue 1 deleted; also called Ex. #56; 56) [[N-terminal(C20 diacid-gGlu), des1, 23Y, 30S, 31G]mimylin]
4 | 57 | 34 | {C20 diacid-γGlu}-ASELSTAALGRLSAELHELATLPRTETGSGSH-NH2 (SMILES CC(C)C[C@H](NC(=O)[C@H](C)NC(=O)[C@H](C)NC(=O)[C@@H](NC(=O)[C@H](CO)NC(=O)[C@H](CC(C)C)NC(=O)[C@H](CCC(=O)O)NC(=O)[C@H](CO)NC(=O)[C@H](C)NC(=O)CC[C@H](NC(=O)CCCCCCCCCCCCCCCCCCC(=O)O)C(=O)O)[C@@H](C)O)C(=O)NCC(=O)N[C@@H](CCCNC(=N)N)C(=O)N[C@@H](CC(C)C)C(=O)N[C@@H](CO)C(=O)N[C@@H](C)C(=O)N[C@@H](CCC(=O)O)C(=O)N[C@@H](CC(C)C)C(=O)N[C@@H](Cc1c[nH]cn1)C(=O)N[C@@H](CCC(=O)O)C(=O)N[C@@H](CC(C)C)C(=O)N[C@@H](C)C(=O)N[C@H](C(=O)N[C@@H](CC(C)C)C(=O)N1CCC[C@H]1C(=O)N[C@@H](CCCNC(=N)N)C(=O)N[C@H](C(=O)N[C@@H](CCC(=O)O)C(=O)N[C@H](C(=O)NCC(=O)N[C@@H](CO)C(=O)NCC(=O)N[C@@H](CO)C(=O)N[C@@H](Cc1c[nH]cn1)C(N)=O)[C@@H](C)O)[C@@H](C)O)[C@@H](C)O, mimylin derivative; des1 = residue 1 deleted; also called Ex. #60; 60) [[N-terminal(C20 diacid-gGlu), des1, 30S, 31G, 33H]mimylin]
5 | 243 | 113 | {C20 diacid-γGlu}-ASELSTAALGRLSAELHELATLPRTETGSGSY-NH2 (SMILES CC(C)C[C@H](NC(=O)[C@H](C)NC(=O)[C@H](C)NC(=O)[C@@H](NC(=O)[C@H](CO)NC(=O)[C@H](CC(C)C)NC(=O)[C@H](CCC(=O)O)NC(=O)[C@H](CO)NC(=O)[C@H](C)NC(=O)CC[C@H](NC(=O)CCCCCCCCCCCCCCCCCCC(=O)O)C(=O)O)[C@@H](C)O)C(=O)NCC(=O)N[C@@H](CCCNC(=N)N)C(=O)N[C@@H](CC(C)C)C(=O)N[C@@H](CO)C(=O)N[C@@H](C)C(=O)N[C@@H](CCC(=O)O)C(=O)N[C@@H](CC(C)C)C(=O)N[C@@H](Cc1c[nH]cn1)C(=O)N[C@@H](CCC(=O)O)C(=O)N[C@@H](CC(C)C)C(=O)N[C@@H](C)C(=O)N[C@H](C(=O)N[C@@H](CC(C)C)C(=O)N1CCC[C@H]1C(=O)N[C@@H](CCCNC(=N)N)C(=O)N[C@H](C(=O)N[C@@H](CCC(=O)O)C(=O)N[C@H](C(=O)NCC(=O)N[C@@H](CO)C(=O)NCC(=O)N[C@@H](CO)C(=O)N[C@@H](Cc1ccc(O)cc1)C(N)=O)[C@@H](C)O)[C@@H](C)O)[C@@H](C)O, mimylin derivative; des1 = residue 1 deleted; also called Ex. #59; 59) [[N-terminal(C20 diacid-gGlu), des1, 30S, 31G, 33Y]mimylin]
6 | 50 | 10 | Ac-ASK([γGlu-C20 diacid])LSTAALGRLSAELHELATLPRTETGSGSP-NH2 (mimylin derivative; des1 = residue 1 deleted; also called Ex. #68; 68) [[N-terminal(acetyl), des1, 4K(C20 diacid-gGlu), 30S, 31G]mimylin]
7 | 74 | 46 | Ac-ASELSTAALGRLSAK([γGlu-C20 diacid])LHELATLPRTETGSGSP-NH2 (mimylin derivative; des1 = residue 1 deleted; also called Ex. #69; 69) [[N-terminal(acetyl), des1, 16K(C20 diacid-gGlu), 30S, 31G]mimylin]
8 | 206 | 77 | Ac-ASELSTAALGRLSAELHK([γGlu-C20 diacid])LATLPRTETGSGSP-NH2 (mimylin derivative; des1 = residue 1 deleted; also called Ex. #70; 70) [[N-terminal(acetyl), des1, 19K(C20 diacid-gGlu), 30S, 31G]mimylin]
